Common to all, as to assay: AUC
Assay [1] deals with STAT2 N domain (aminoterminal domain), recombinant, mEGFP-tagged (human).
For assay [2], the target named is STAT2 N domain LL81,82AA, recombinant (human).
Assay [3] addresses T1, STAT1 N domain (aminoterminal domain), recombinant.
T1 chain: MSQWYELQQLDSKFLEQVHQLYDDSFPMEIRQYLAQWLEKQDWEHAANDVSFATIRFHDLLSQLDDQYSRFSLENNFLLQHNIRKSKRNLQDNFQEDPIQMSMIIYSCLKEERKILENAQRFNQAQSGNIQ

Bounds are passed on as bounds.

Sequence of STAT2 N domain (aminoterminal domain), recombinant, mEGFP-tagged (human) (chain, as listed by the source): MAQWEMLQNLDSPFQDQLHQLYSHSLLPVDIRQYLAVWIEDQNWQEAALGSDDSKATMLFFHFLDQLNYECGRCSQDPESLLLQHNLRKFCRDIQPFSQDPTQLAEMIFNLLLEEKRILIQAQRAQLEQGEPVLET
Sequence of STAT2 N domain LL81,82AA, recombinant (human) (chain, as listed by the source): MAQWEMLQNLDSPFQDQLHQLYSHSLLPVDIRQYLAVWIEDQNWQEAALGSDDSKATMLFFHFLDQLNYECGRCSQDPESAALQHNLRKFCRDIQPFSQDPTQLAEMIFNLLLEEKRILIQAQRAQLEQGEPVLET

B1: STAT2 N domain (aminoterminal domain), recombinant, mEGFP-tagged (domain or fragment)
chain: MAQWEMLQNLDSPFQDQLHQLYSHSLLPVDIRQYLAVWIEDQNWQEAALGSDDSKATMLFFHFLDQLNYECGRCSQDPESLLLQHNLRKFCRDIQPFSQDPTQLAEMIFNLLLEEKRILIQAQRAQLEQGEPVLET
modifications: limits not given; N domain taken up to the start of the core region (P52630 region from 138), homologous to STAT1 1-131; mEGFP and Strep-tag omitted limits not given; N domain taken up to the start of the core region (P52630 region from 138), homologous to STAT1 1-131; mEGFP and Strep-tag omitted
Turning to B1, in assay [1], the dissociation constant (Kd) is 705 µM.

B2: STAT1 N domain (aminoterminal domain), recombinant (domain or fragment)
chain: MSQWYELQQLDSKFLEQVHQLYDDSFPMEIRQYLAQWLEKQDWEHAANDVSFATIRFHDLLSQLDDQYSRFSLENNFLLQHNIRKSKRNLQDNFQEDPIQMSMIIYSCLKEERKILENAQRFNQAQSGNIQ
modifications: limits not printed (S1 Text/ref. 22); N domain taken up to the start of the conventional STAT1 core fragment (132-713); Strep-tag omitted limits not given; N domain taken up to the start of the core region (P52630 region from 138), homologous to STAT1 1-131; mEGFP and Strep-tag omitted
Turning to B2, the dissociation constant (Kd) in assay [1] was under 0.01 µM.

B3: STAT1 N domain (aminoterminal domain), recombinant (domain or fragment)
chain: MSQWYELQQLDSKFLEQVHQLYDDSFPMEIRQYLAQWLEKQDWEHAANDVSFATIRFHDLLSQLDDQYSRFSLENNFLLQHNIRKSKRNLQDNFQEDPIQMSMIIYSCLKEERKILENAQRFNQAQSGNIQ
modifications: limits not printed (S1 Text/ref. 22); N domain taken up to the start of the conventional STAT1 core fragment (132-713); Strep-tag omitted limits not given; same convention as m2; tags omitted
With B3, the Kd in assay [2] was determined as 5500 µM.

B4: STAT1 N domain (aminoterminal domain), recombinant (domain or fragment)
chain: MSQWYELQQLDSKFLEQVHQLYDDSFPMEIRQYLAQWLEKQDWEHAANDVSFATIRFHDLLSQLDDQYSRFSLENNFLLQHNIRKSKRNLQDNFQEDPIQMSMIIYSCLKEERKILENAQRFNQAQSGNIQ
modifications: limits not printed (S1 Text/ref. 22); N domain taken up to the start of the conventional STAT1 core fragment (132-713); Strep-tag omitted limits not printed (S1 Text/ref. 22); N domain taken up to the start of the conventional STAT1 core fragment (132-713); Strep-tag omitted
In the case of B4, in assay [3], the Kd stood at 16.6 µM.
